For experiment [1], the target named is collagen (agarose cross-linked to collagen, Sigma). Nature of the experiment: pulldown on collagen-agarose beads, anti-mouse IL-2 immunoblot, bound fraction normalized to Construct B.
The target is the same in experiment [2]. Briefly: pulldown on collagen-agarose beads, anti-mouse IL-2 immunoblot, band quantified with iBright.
Experiment [3] concerns the target collagen cross-linked to agarose (Sigma). Briefly: pulldown with collagen-agarose beads, anti-mouse IL-2 immunoblot quantified with iBright imaging system.

Where only a bound is given, the exact number is not on record here.

B1: Construct B (Fc fusion)
chain: APTSSSTSSSTAEAQQQQQQQQQQQQHLEQLLMDLQELLSRMENYRNLKLPRMLTFKFYLPKQATELKDLQCLEDELGPLRHVLDLTQSKSFQLEDAENFISNIRVTVVKLKGSDNTFECQFDDESATVVDFLRRWIAFCQSIISTSPQSGGGGSGGGGGPLGVRGGGGGSGGGGSELCLYDPPEVPNATFKALSYKNGTILNCECKRGFRRLKELVYMRCLGNSWSSNCQCTSNSHDKSRKQVTAQLEHQKEQQTTTDMQKPTQSMHQENLTGHCREPPPWKHEDSKRIYHFVEGQSVHYECIPGYKALQRGPAISICKMKCGKTGWTQPQLTCVDEREHHRFLASEESQGSRNSSPESETSCPITTTDFPQPTETTAMTETFVLTMEYKGCKPCICTVPEVSSVFIFPPKPKDVLTITLTPKVTCVVVDISKDDPEVQFSWFVDDVEVHTAQTQPREEQFNSTFRSVSELPIMHQDWLNGKEFKCRVNSAAFPAPIEKTISKTKGRPKAPQVYTIPPPKEQMAKDKVSLTCMITDFFPEDITVEWQWNGQPAENYKNTQPIMDTDGSYFVYSKLNVQKSNWEAGNTFTCSVLHEGLHNHHTEKSLSHSPGK
B1 came in with a Normalized (fold (relative to Construct B)) in experiment [1] of 1. In experiment [2], this molecule returned a Bound of 2310 and a Bound (% input) of 0.3%.

B2: Construct GG (Fc fusion)
chain: APTSSSTSSSTAEAQQQQQQQQQQQQHLEQLLMDLQELLSRMENYRNLKLPRMLTFKFYLPKQATELKDLQCLEDELGPLRHVLDLTQSKSFQLEDAENFISNIRVTVVKLKGSDNTFECQFDDESATVVDFLRRWIAFCQSIISTSPQSGGKLWVLPKGPLGVRGGGGGSGGGGSELCLYDPPEVPNATFKALSYKNGTILNCECKRGFRRLKELVYMRCLGNSWSSNCQCTSNSHDKSRKQVTAQLEHQKEQQTTTDMQKPTQSMHQENLTGHCREPPPWKHEDSKRIYHFVEGQSVHYECIPGYKALQRGPAISICKMKCGKTGWTQPQLTCVDEREHHRFLASEESQGSRNSSPESETSCPITTTDFPQPTETTAMTETFVLTMEYKGCKPCICTVPEVSSVFIFPPKPKDVLTITLTPKVTCVVVDISKDDPEVQFSWFVDDVEVHTAQTQPREEQFNSTFRSVSELPIMHQDWLNGKEFKCRVNSAAFPAPIEKTISKTKGRPKAPQVYTIPPPKEQMAKDKVSLTCMITDFFPEDITVEWQWNGQPAENYKNTQPIMDTDGSYFVYSKLNVQKSNWEAGNTFTCSVLHEGLHNHHTEKSLSHSPGK
The molecule B2 returned a Normalized (fold (relative to Construct B)) in experiment [1] of 2.5. Besides, in experiment [2], the Bound was 5190 and the Bound (% input) came to 0.7%.

B3: Construct II: m IL2-…-MMPcs1-2x(G4S)-mIL2Ra(1-215)-mu IgG1 Fc (Fc fusion)
chain: APTSSSTSSSTAEAQQQQQQQQQQQQHLEQLLMDLQELLSRMENYRNLKLPRMLTFKFYLPKQATELKDLQCLEDELGPLRHVLDLTQSKSFQLEDAENFISNIRVTVVKLKGSDNTFECQFDDESATVVDFLRRWIAFCQSIISTSPQSLHERHLNNNGPLGVRGGGGGSGGGGSELCLYDPPEVPNATFKALSYKNGTILNCECKRGFRRLKELVYMRCLGNSWSSNCQCTSNSHDKSRKQVTAQLEHQKEQQTTTDMQKPTQSMHQENLTGHCREPPPWKHEDSKRIYHFVEGQSVHYECIPGYKALQRGPAISICKMKCGKTGWTQPQLTCVDEREHHRFLASEESQGSRNSSPESETSCPITTTDFPQPTETTAMTETFVLTMEYKGCKPCICTVPEVSSVFIFPPKPKDVLTITLTPKVTCVVVDISKDDPEVQFSWFVDDVEVHTAQTQPREEQFNSTFRSVSELPIMHQDWLNGKEFKCRVNSAAFPAPIEKTISKTKGRPKAPQVYTIPPPKEQMAKDKVSLTCMITDFFPEDITVEWQWNGQPAENYKNTQPIMDTDGSYFVYSKLNVQKSNWEAGNTFTCSVLHEGLHNHHTEKSLSHSPGK
B3: the fraction bound (% of input) in experiment [3] is < 1 % of input.

B4: Construct II (Fc fusion)
chain: APTSSSTSSSTAEAQQQQQQQQQQQQHLEQLLMDLQELLSRMENYRNLKLPRMLTFKFYLPKQATELKDLQCLEDELGPLRHVLDLTQSKSFQLEDAENFISNIRVTVVKLKGSDNTFECQFDDESATVVDFLRRWIAFCQSIISTSPQSLHERHLNNNGPLGVRGGGGGSGGGGSELCLYDPPEVPNATFKALSYKNGTILNCECKRGFRRLKELVYMRCLGNSWSSNCQCTSNSHDKSRKQVTAQLEHQKEQQTTTDMQKPTQSMHQENLTGHCREPPPWKHEDSKRIYHFVEGQSVHYECIPGYKALQRGPAISICKMKCGKTGWTQPQLTCVDEREHHRFLASEESQGSRNSSPESETSCPITTTDFPQPTETTAMTETFVLTMEYKGCKPCICTVPEVSSVFIFPPKPKDVLTITLTPKVTCVVVDISKDDPEVQFSWFVDDVEVHTAQTQPREEQFNSTFRSVSELPIMHQDWLNGKEFKCRVNSAAFPAPIEKTISKTKGRPKAPQVYTIPPPKEQMAKDKVSLTCMITDFFPEDITVEWQWNGQPAENYKNTQPIMDTDGSYFVYSKLNVQKSNWEAGNTFTCSVLHEGLHNHHTEKSLSHSPGK
In experiment [1], B4 returned a Normalized (fold (relative to Construct B)) of 1.4. In addition, in experiment [2], the Bound is 2280 and the Bound (% input) is 0.4%.

B5: Construct GG: m IL2-SGG-KLWVLPK-MMPcs1-2x(G4S)-mIL2Ra(1-215)-mu IgG1 Fc (Fc fusion)
chain: APTSSSTSSSTAEAQQQQQQQQQQQQHLEQLLMDLQELLSRMENYRNLKLPRMLTFKFYLPKQATELKDLQCLEDELGPLRHVLDLTQSKSFQLEDAENFISNIRVTVVKLKGSDNTFECQFDDESATVVDFLRRWIAFCQSIISTSPQSGGKLWVLPKGPLGVRGGGGGSGGGGSELCLYDPPEVPNATFKALSYKNGTILNCECKRGFRRLKELVYMRCLGNSWSSNCQCTSNSHDKSRKQVTAQLEHQKEQQTTTDMQKPTQSMHQENLTGHCREPPPWKHEDSKRIYHFVEGQSVHYECIPGYKALQRGPAISICKMKCGKTGWTQPQLTCVDEREHHRFLASEESQGSRNSSPESETSCPITTTDFPQPTETTAMTETFVLTMEYKGCKPCICTVPEVSSVFIFPPKPKDVLTITLTPKVTCVVVDISKDDPEVQFSWFVDDVEVHTAQTQPREEQFNSTFRSVSELPIMHQDWLNGKEFKCRVNSAAFPAPIEKTISKTKGRPKAPQVYTIPPPKEQMAKDKVSLTCMITDFFPEDITVEWQWNGQPAENYKNTQPIMDTDGSYFVYSKLNVQKSNWEAGNTFTCSVLHEGLHNHHTEKSLSHSPGK
On to B5, for which the fraction bound (% of input) in experiment [3] was < 1 % of input.
